In PMC9352680, “A comprehensive thermodynamic model for RNA binding by the Saccharomyces cerevisiae Pumilio protein PUF4”:

T1: PUF4 RNA-binding domain (Saccharomyces cerevisiae, UniProt P25339 537-888)
T1 sequence: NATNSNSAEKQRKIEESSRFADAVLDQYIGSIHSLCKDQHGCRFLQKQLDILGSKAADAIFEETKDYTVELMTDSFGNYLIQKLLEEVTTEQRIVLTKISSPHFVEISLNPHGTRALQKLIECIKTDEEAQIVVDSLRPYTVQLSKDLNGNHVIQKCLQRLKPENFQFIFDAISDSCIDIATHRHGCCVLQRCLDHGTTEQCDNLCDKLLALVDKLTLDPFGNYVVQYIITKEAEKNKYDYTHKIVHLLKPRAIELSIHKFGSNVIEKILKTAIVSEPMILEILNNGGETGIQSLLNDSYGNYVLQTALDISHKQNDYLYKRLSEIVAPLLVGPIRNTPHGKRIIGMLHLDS


Biological target: T1, PUF4 RNA-binding domain
Assay: Mg; RNA-MaP; 20 mM Na-HEPES pH 7.4, 30 mM KOAc, 0.75 mM MgCl2, 0.1% Tween-20, 5% glycerol, 0.1 mg/mL BSA, 2 mM DTT; 25 C; 0.0125-409.6 nM protein
Conditions: tags: N-His6-TEV cleaved; C-SNAP kept, Cy3B-labelled; label: tethered on chip by stalled RNA polymerase

Binder | Kd [nM]
UCUCUUUGUAGCUUAUCUCUU (ssRNA) [Ic_S1_P4E.1_K4.1_C4.1_H4.1_A4.1_[T5G]_[A6C]_F4.1_T4.1] | 28.6
UCUCUUUUACACUAUUAUCUCUCUU (ssRNA) [Id_ii_S1_P4E.4_K4.3_C4.2_[C-2T]_H4.3_A4.1_F4.1_T4.2_[G10T]_[T11C]] | 1280
UCUCUUUGUGUACUAUCUCUU (ssRNA) [Ib_S1_P4E.1_K4.1_C4.1_H4.1_[A4G]_A4.1_[T7C]_F4.1_T4.1] | 6.14
UCUCUUUGACACUAUUACUUCUCUU (ssRNA) [Id_ii_S1_P4E.4_K4.3_C4.2_[C-2T]_[T-1G]_H4.3_A4.1_F4.1_T4.2_[G10C]] | > 2300
UCUCUUCAUAUAUAUUAGGUCUCUU (ssRNA) [Id_ii_S1_P4E.3_K4.2_C4.2_[T-1A]_H4.2_A4.1_F4.1_T4.2_[T11G]] | 18.2
UCUCUUCUUAUAUAUUAUGUCUCUU (ssRNA) [Id_ii_S1_P4E.3_K4.2_C4.2_H4.2_A4.1_F4.1_T4.2_[G10T]_[T11G]] | 12.2
UCUCUUGUACACUAUUAACUCUCUU (ssRNA) [Id_ii_S1_P4E.4_K4.3_C4.2_[C-2G]_H4.3_A4.1_F4.1_T4.2_[G10A]_[T11C]] | 0.968
UCUCUUCUUAUAUAUUAUAUCUCUU (ssRNA) [Id_ii_S1_P4E.3_K4.2_C4.2_H4.2_A4.1_F4.1_T4.2_[G10T]_[T11A]] | 27.7
UCUCUUGCACACUAUUACGUCUCUU (ssRNA) [Id_ii_S1_P4E.4_K4.3_C4.2_[C-2G]_[T-1C]_H4.3_A4.1_F4.1_T4.2_[G10C]_[T11G]] | 408
UCUCUUGUACACUAUUAAAUCUCUU (ssRNA) [Id_ii_S1_P4E.4_K4.3_C4.2_[C-2G]_H4.3_A4.1_F4.1_T4.2_[G10A]_[T11A]] | 0.983
UCUCUUGUACACUAUUAGUUCUCUU (ssRNA) [Id_ii_S1_P4E.4_K4.3_C4.2_[C-2G]_H4.3_A4.1_F4.1_T4.2] | 1.27
UCUCUUUUACACUAUUACUUCUCUU (ssRNA) [Id_ii_S1_P4E.4_K4.3_C4.2_[C-2T]_H4.3_A4.1_F4.1_T4.2_[G10C]] | 1160
UCUCUUUGACACUAUUACCUCUCUU (ssRNA) [Id_ii_S1_P4E.4_K4.3_C4.2_[C-2T]_[T-1G]_H4.3_A4.1_F4.1_T4.2_[G10C]_[T11C]] | > 2300
UCUCUUUUACACUAUUAUUUCUCUU (ssRNA) [Id_ii_S1_P4E.4_K4.3_C4.2_[C-2T]_H4.3_A4.1_F4.1_T4.2_[G10T]] | 1130
UCUCUUCUUAUAUAUUACAUCUCUU (ssRNA) [Id_ii_S1_P4E.3_K4.2_C4.2_H4.2_A4.1_F4.1_T4.2_[G10C]_[T11A]] | 13.5
UCUCUUCUUAUAUAUUAUCUCUCUU (ssRNA) [Id_ii_S1_P4E.3_K4.2_C4.2_H4.2_A4.1_F4.1_T4.2_[G10T]_[T11C]] | 13.9
UCUCUUGUACACUAUUAGCUCUCUU (ssRNA) [Id_ii_S1_P4E.4_K4.3_C4.2_[C-2G]_H4.3_A4.1_F4.1_T4.2_[T11C]] | 0.962
UCUCUUUGACACUAUUAUAUCUCUU (ssRNA) [Id_ii_S1_P4E.4_K4.3_C4.2_[C-2T]_[T-1G]_H4.3_A4.1_F4.1_T4.2_[G10T]_[T11A]] | 2180
UCUCUUGCACACUAUUAACUCUCUU (ssRNA) [Id_ii_S1_P4E.4_K4.3_C4.2_[C-2G]_[T-1C]_H4.3_A4.1_F4.1_T4.2_[G10A]_[T11C]] | 69.5
UCUCUUGUACACUAUUAUAUCUCUU (ssRNA) [Id_ii_S1_P4E.4_K4.3_C4.2_[C-2G]_H4.3_A4.1_F4.1_T4.2_[G10T]_[T11A]] | 1.07
UCUCUUCUUAUAUAUUAAAUCUCUU (ssRNA) [Id_ii_S1_P4E.3_K4.2_C4.2_H4.2_A4.1_F4.1_T4.2_[G10A]_[T11A]] | 43.5

Binder | Kd [nM]
UCUCUUUGUAUAUCUCUCUU (ssRNA) [Ia_S1_P3E.1_K3.1_C3.1_H3.1_A3.1_F3.1_[A8C]_T3.1] | 14.8
UCUCUUUGUAUUACUAUCUCUU (ssRNA) [Ia_S1_P5E.1_K5.1_C5.1_H5.1_A5.1_F5.1_[T8C]_T5.1] | 9.98
UCUCUUGUACACUAUUAUUUCUCUU (ssRNA) [Id_ii_S1_P4E.4_K4.3_C4.2_[C-2G]_H4.3_A4.1_F4.1_T4.2_[G10T]] | 0.832
UCUCUUUGACACUAUUAUCUCUCUU (ssRNA) [Id_ii_S1_P4E.4_K4.3_C4.2_[C-2T]_[T-1G]_H4.3_A4.1_F4.1_T4.2_[G10T]_[T11C]] | > 2300
UCUCUUGCACACUAUUAUAUCUCUU (ssRNA) [Id_ii_S1_P4E.4_K4.3_C4.2_[C-2G]_[T-1C]_H4.3_A4.1_F4.1_T4.2_[G10T]_[T11A]] | 351
UCUCUUGUACACUAUUAUCUCUCUU (ssRNA) [Id_ii_S1_P4E.4_K4.3_C4.2_[C-2G]_H4.3_A4.1_F4.1_T4.2_[G10T]_[T11C]] | 0.681
UCUCUUGUACACUAUUACCUCUCUU (ssRNA) [Id_ii_S1_P4E.4_K4.3_C4.2_[C-2G]_H4.3_A4.1_F4.1_T4.2_[G10C]_[T11C]] | 0.615
UCUCUUCUUAUAUAUUACUUCUCUU (ssRNA) [Id_ii_S1_P4E.3_K4.2_C4.2_H4.2_A4.1_F4.1_T4.2_[G10C]] | 18.3
UCUCUUUAACACUAUUAUUUCUCUU (ssRNA) [Id_ii_S1_P4E.4_K4.3_C4.2_[C-2T]_[T-1A]_H4.3_A4.1_F4.1_T4.2_[G10T]] | > 2300
UCUCUUUCACACUAUUACCUCUCUU (ssRNA) [Id_ii_S1_P4E.4_K4.3_C4.2_[C-2T]_[T-1C]_H4.3_A4.1_F4.1_T4.2_[G10C]_[T11C]] | > 2300
UCUCUUGCACACUAUUAUUUCUCUU (ssRNA) [Id_ii_S1_P4E.4_K4.3_C4.2_[C-2G]_[T-1C]_H4.3_A4.1_F4.1_T4.2_[G10T]] | 71
UCUCUUUGUCUAAUAUCUCUU (ssRNA) [Ib_S1_P4E.1_K4.1_C4.1_H4.1_[A4C]_A4.1_[T7A]_F4.1_T4.1] | 83.9
UCUCUUCUUAUAUAUUAUUUCUCUU (ssRNA) [Id_ii_S1_P4E.3_K4.2_C4.2_H4.2_A4.1_F4.1_T4.2_[G10T]] | 15.7
UCUCUUGCACACUAUUAGUUCUCUU (ssRNA) [Id_ii_S1_P4E.4_K4.3_C4.2_[C-2G]_[T-1C]_H4.3_A4.1_F4.1_T4.2] | 347
UCUCUUCUUAUAUAUUAAUUCUCUU (ssRNA) [Id_ii_S1_P4E.3_K4.2_C4.2_H4.2_A4.1_F4.1_T4.2_[G10A]] | 18.9
UCUCUUUGUGUAAUAUCUCUU (ssRNA) [Ib_S1_P4E.1_K4.1_C4.1_H4.1_[A4G]_A4.1_[T7A]_F4.1_T4.1] | 10.4
UCUCUUCUUAUAUAUUAGUUCUCUU (ssRNA) [If_S1_P4E.3_K4.2_C4.2_H4.2_A4.1_F4.1_T4.2] | 7.55
UCUCUUUUACACUAUUAUAUCUCUU (ssRNA) [Id_ii_S1_P4E.4_K4.3_C4.2_[C-2T]_H4.3_A4.1_F4.1_T4.2_[G10T]_[T11A]] | 944
UCUCUUCAUAUAUAUUAGCUCUCUU (ssRNA) [Id_ii_S1_P4E.3_K4.2_C4.2_[T-1A]_H4.2_A4.1_F4.1_T4.2_[T11C]] | 8.31
UCUCUUUGACACUAUUAUUUCUCUU (ssRNA) [Id_ii_S1_P4E.4_K4.3_C4.2_[C-2T]_[T-1G]_H4.3_A4.1_F4.1_T4.2_[G10T]] | > 2300
UCUCUUCAUAUAUAUUAGUUCUCUU (ssRNA) [Id_ii_S1_P4E.3_K4.2_C4.2_[T-1A]_H4.2_A4.1_F4.1_T4.2] | 8.18

Binder | Kd [nM]
UCUCUUUAACACUAUUACUUCUCUU (ssRNA) [Id_ii_S1_P4E.4_K4.3_C4.2_[C-2T]_[T-1A]_H4.3_A4.1_F4.1_T4.2_[G10C]] | > 2300
UCUCUUUGUAGUUUAUCUCUU (ssRNA) [Ic_S1_P4E.1_K4.1_C4.1_H4.1_A4.1_[T5G]_[A6T]_F4.1_T4.1] | 18.5
UCUCUUGCACACUAUUACUUCUCUU (ssRNA) [Id_ii_S1_P4E.4_K4.3_C4.2_[C-2G]_[T-1C]_H4.3_A4.1_F4.1_T4.2_[G10C]] | 74.1
UCUCUUUCACACUAUUACUUCUCUU (ssRNA) [Id_ii_S1_P4E.4_K4.3_C4.2_[C-2T]_[T-1C]_H4.3_A4.1_F4.1_T4.2_[G10C]] | > 2300
UCUCUUGCACACUAUUAAUUCUCUU (ssRNA) [Id_ii_S1_P4E.4_K4.3_C4.2_[C-2G]_[T-1C]_H4.3_A4.1_F4.1_T4.2_[G10A]] | 93.8
UCUCUUCUUAUAUAUUAGCUCUCUU (ssRNA) [Id_ii_S1_P4E.3_K4.2_C4.2_H4.2_A4.1_F4.1_T4.2_[T11C]] | 7.8
UCUCUUUGACACUAUUAACUCUCUU (ssRNA) [Id_ii_S1_P4E.4_K4.3_C4.2_[C-2T]_[T-1G]_H4.3_A4.1_F4.1_T4.2_[G10A]_[T11C]] | > 2300
UCUCUUUAACACUAUUAGCUCUCUU (ssRNA) [Id_ii_S1_P4E.4_K4.3_C4.2_[C-2T]_[T-1A]_H4.3_A4.1_F4.1_T4.2_[T11C]] | > 2300
UCUCUUUCACACUAUUAUCUCUCUU (ssRNA) [Id_ii_S1_P4E.4_K4.3_C4.2_[C-2T]_[T-1C]_H4.3_A4.1_F4.1_T4.2_[G10T]_[T11C]] | > 2300
UCUCUUGCACACUAUUACAUCUCUU (ssRNA) [Id_ii_S1_P4E.4_K4.3_C4.2_[C-2G]_[T-1C]_H4.3_A4.1_F4.1_T4.2_[G10C]_[T11A]] | 99.1
UCUCUUGUACACUAUUAAUUCUCUU (ssRNA) [Id_ii_S1_P4E.4_K4.3_C4.2_[C-2G]_H4.3_A4.1_F4.1_T4.2_[G10A]] | 1.04
UCUCUUUGUUUAGUAUCUCUU (ssRNA) [Ib_S1_P4E.1_K4.1_C4.1_H4.1_[A4T]_A4.1_[T7G]_F4.1_T4.1] | 24.4
UCUCUUCAUAUAUAUUAGAUCUCUU (ssRNA) [Id_ii_S1_P4E.3_K4.2_C4.2_[T-1A]_H4.2_A4.1_F4.1_T4.2_[T11A]] | 19.9
UCUCUUUGACACUAUUACAUCUCUU (ssRNA) [Id_ii_S1_P4E.4_K4.3_C4.2_[C-2T]_[T-1G]_H4.3_A4.1_F4.1_T4.2_[G10C]_[T11A]] | > 2300
UCUCUUUAACACUAUUAGUUCUCUU (ssRNA) [Id_ii_S1_P4E.4_K4.3_C4.2_[C-2T]_[T-1A]_H4.3_A4.1_F4.1_T4.2] | > 2300
UCUCUUGCACACUAUUAUCUCUCUU (ssRNA) [Id_ii_S1_P4E.4_K4.3_C4.2_[C-2G]_[T-1C]_H4.3_A4.1_F4.1_T4.2_[G10T]_[T11C]] | 91.3
UCUCUUGCACACUAUUAAAUCUCUU (ssRNA) [Id_ii_S1_P4E.4_K4.3_C4.2_[C-2G]_[T-1C]_H4.3_A4.1_F4.1_T4.2_[G10A]_[T11A]] | 131
UCUCUUUUACACUAUUACGUCUCUU (ssRNA) [Id_ii_S1_P4E.4_K4.3_C4.2_[C-2T]_H4.3_A4.1_F4.1_T4.2_[G10C]_[T11G]] | 1680
UCUCUUCUUAUAUAUUACGUCUCUU (ssRNA) [Id_ii_S1_P4E.3_K4.2_C4.2_H4.2_A4.1_F4.1_T4.2_[G10C]_[T11G]] | 16.6
UCUCUUUUACACUAUUACCUCUCUU (ssRNA) [Id_ii_S1_P4E.4_K4.3_C4.2_[C-2T]_H4.3_A4.1_F4.1_T4.2_[G10C]_[T11C]] | 1320
UCUCUUUGACACUAUUAGCUCUCUU (ssRNA) [Id_ii_S1_P4E.4_K4.3_C4.2_[C-2T]_[T-1G]_H4.3_A4.1_F4.1_T4.2_[T11C]] | > 2300
